Test results: patent US20190106460A1 (published 2019)
Like-named read-outs stand apart in the source and are kept apart here. Starred links: 1 amine or outer side, 2 acyl side, 3 side chain; linkers in the order of their positions; H or OH if unused. Non-standard residues stand in square brackets, D forms with d. *: point of attachment. Phe(3-F) = N[C@@H](Cc1cccc(F)c1)C(=O)O; 1Nal = N[C@@H](Cc1cccc2ccccc12)C(=O)O; Suc = O=C(CCC(=O)[*:2])[*:1]; Tos = Cc1ccc(S(=O)(=O)*)cc1; Ethoxycarbonyl = CCOC(=O)*; Propionyl = CCC(=O)*; Bz = O=C(c1ccccc1)*; Moc = COC(=O)*

B1: MeO(CO)-dEGF(3F)WE-NH2 (peptide)
peptide: Moc-[dD]EG[Phe(3-F)]WE-NH2
SMILES: COC(=O)N[C@H](CC(=O)O)C(=O)N[C@@H](CCC(=O)O)C(=O)NCC(=O)N[C@@H](Cc1cccc(F)c1)C(=O)N[C@@H](Cc1c[nH]c2ccccc12)C(=O)N[C@@H](CCC(=O)O)C(N)=O
notes: also called UBP020
B2: EtO(CO)-dEGF(3F)WE-NH2 (peptide)
peptide: Ethoxycarbonyl-[dD]EG[Phe(3-F)]WE-NH2
SMILES: CCOC(=O)N[C@H](CC(=O)O)C(=O)N[C@@H](CCC(=O)O)C(=O)NCC(=O)N[C@@H](Cc1cccc(F)c1)C(=O)N[C@@H](Cc1c[nH]c2ccccc12)C(=O)N[C@@H](CCC(=O)O)C(N)=O
notes: also called UBP023
B3: Ac-dEGF(3F)1NalE-NH2 (peptide)
peptide: Ac-[dD]EG[Phe(3-F)][1Nal]E-NH2
SMILES: CC(=O)N[C@H](CC(=O)O)C(=O)N[C@@H](CCC(=O)O)C(=O)NCC(=O)N[C@@H](Cc1cccc(F)c1)C(=O)N[C@@H](Cc1cccc2ccccc12)C(=O)N[C@@H](CCC(=O)O)C(N)=O
notes: also called UBP016
B4: Suc-EGFFE-NH2 (peptide)
peptide: Suc-EGFFE-NH2
SMILES: NC(=O)[C@H](CCC(=O)O)NC(=O)[C@H](Cc1ccccc1)NC(=O)[C@H](Cc1ccccc1)NC(=O)CNC(=O)[C@H](CCC(=O)O)NC(=O)CCC(=O)O
notes: also called UBP002
B5: Ts-dEGF(3F)WE-NH2 (peptide)
peptide: Tos-[dD]EG[Phe(3-F)]WE-NH2
SMILES: Cc1ccc(S(=O)(=O)N[C@H](CC(=O)O)C(=O)N[C@@H](CCC(=O)O)C(=O)NCC(=O)N[C@@H](Cc2cccc(F)c2)C(=O)N[C@@H](Cc2c[nH]c3ccccc23)C(=O)N[C@@H](CCC(=O)O)C(N)=O)cc1
notes: also called UBP021

Experiments:
[1] = molecular target: T1, βTrCP (tag cleaved and complexed with Skp1) (UniProt Q9Y297 175-605; P63208 1-163); assay: FP competition vs fluorescein-IκB peptide
T1 construct: Protein of the FP assay (0.035 µM); also called Beta Transducin repeat-containing protein; βTrCP/Skp1

[2] = molecular target: T2, HisβTrCP/Skp1 and HisβTrCP/GSTSkp1 (immobilised on NTA Biacore chip) (UniProt Q9Y297 175-605; P63208 1-163); assay: SPR, Biacore T200, βTrCP/Skp1 immobilised
T2 construct: SPR: KD values from both surfaces (with or without the GST moiety) were averaged to give the apparent KD; also called βTrCP surfaces
Description: As βTrCP was His tagged, an NTA sensor chip was used. This sensor chip has a dextran surface matrix with immobilized nitrilotriacetic acid (NTA) which provides a means of capturing polyHis-tagged proteins through Nickel chelation. It was hoped that addition of Ni⁺ would orient the protein in a specific (and hopefully active) manner as it is covalently immobilised via amine coupling. Addition of EDC:NHS (N-ethyl-N′-(3-[…])-carbodiimide:N-hydroxysuccinimide) converts carboxyl groups on the dextran sensor chip surface to succinamide esters which readily form covalent bonds with primary amines. Each chip contains four flow cells (each a separate surface) which means that compounds/peptides can be passed over different forms of βTrCP and a reference surface simultaneously. If binding to βTrCP is occurring, responses should be the same (accounting for differences in density of surface etc) on each surface.
Small molecule/peptide samples to be assayed for binding to βTrCP surfaces, were provided as 10 mM stocks in 100% DMSO. All samples were tested in running buffer composed of 10 mM HEPES pH 7.4, 150 mM NaCl, 50 μM EDTA, 0.005% p20, and 1% DMSO. Serial dilutions were made using running buffer. Samples were tested over varying concentrations up to a maximum of 100 μM. Two methods of measuring the SPR response were employed: single cycle kinetics which measures the response across different concentrations of sample within a single cycle (no regeneration of surface) and a method that measures the response at a given concentration in each cycle and includes a regeneration wash after each sample injection. The regeneration solution used was the same as running buffer, but included 500 mM NaCl. Data was fitted using Biacore T200 evaluation software. KD values calculated from binding curves from both surfaces (with or without the GST moiety) were averaged to produce apparent KD's for each sample tested.

[3] = molecular target: T1, βTrCP (tag cleaved and complexed with …); assay: FP competition vs fluorescein-IκB peptide; remark: listed apart in the source
Fbw7 = Fbw7 (UniProt Q969H0 263-707, limits assumed); assay: cell-based or functional assay
Skp2 = Skp2 (UniProt Q13309 1-424, limits assumed); assay: cell-based or functional assay
Chain of Skp2 (Q13309 whole entry): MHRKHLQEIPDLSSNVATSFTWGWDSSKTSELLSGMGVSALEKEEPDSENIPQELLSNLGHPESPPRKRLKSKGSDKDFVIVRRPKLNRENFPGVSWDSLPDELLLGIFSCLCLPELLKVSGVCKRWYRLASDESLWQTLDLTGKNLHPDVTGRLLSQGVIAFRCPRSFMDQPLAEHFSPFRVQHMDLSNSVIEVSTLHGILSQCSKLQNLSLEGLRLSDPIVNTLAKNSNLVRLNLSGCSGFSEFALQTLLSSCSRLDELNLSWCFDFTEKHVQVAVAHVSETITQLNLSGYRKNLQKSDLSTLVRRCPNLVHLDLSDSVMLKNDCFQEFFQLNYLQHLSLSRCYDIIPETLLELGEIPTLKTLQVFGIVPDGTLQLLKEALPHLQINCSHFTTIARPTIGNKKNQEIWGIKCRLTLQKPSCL

T2 sequence (Q9Y297 175-605, chain 1 of 2): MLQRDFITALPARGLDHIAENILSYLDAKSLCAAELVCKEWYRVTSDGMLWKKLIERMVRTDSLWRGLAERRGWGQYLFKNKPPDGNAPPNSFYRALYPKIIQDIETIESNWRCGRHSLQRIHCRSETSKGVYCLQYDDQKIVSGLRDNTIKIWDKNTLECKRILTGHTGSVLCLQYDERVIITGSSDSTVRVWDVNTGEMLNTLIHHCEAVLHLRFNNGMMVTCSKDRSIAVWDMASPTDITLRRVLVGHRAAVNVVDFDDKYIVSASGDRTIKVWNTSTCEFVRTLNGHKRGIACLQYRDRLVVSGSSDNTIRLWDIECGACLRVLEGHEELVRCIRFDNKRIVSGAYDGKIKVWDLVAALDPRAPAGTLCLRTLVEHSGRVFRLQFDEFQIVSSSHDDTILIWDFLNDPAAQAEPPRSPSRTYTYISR
T2 sequence (P63208 whole entry, chain 2 of 2): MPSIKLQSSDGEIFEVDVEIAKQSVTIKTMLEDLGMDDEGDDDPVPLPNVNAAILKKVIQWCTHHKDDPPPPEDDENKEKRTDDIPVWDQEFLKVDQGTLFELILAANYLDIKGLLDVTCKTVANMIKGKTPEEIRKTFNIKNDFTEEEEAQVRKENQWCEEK
T1 sequence (Q9Y297 175-605, chain 1 of 2): as the sequence (Q9Y297 175-605, chain 1 of 2) above
T1 sequence (P63208 whole entry, chain 2 of 2): as the sequence (P63208 whole entry, chain 2 of 2) above
Chain of Fbw7 (Q969H0 263-707 limits assumed): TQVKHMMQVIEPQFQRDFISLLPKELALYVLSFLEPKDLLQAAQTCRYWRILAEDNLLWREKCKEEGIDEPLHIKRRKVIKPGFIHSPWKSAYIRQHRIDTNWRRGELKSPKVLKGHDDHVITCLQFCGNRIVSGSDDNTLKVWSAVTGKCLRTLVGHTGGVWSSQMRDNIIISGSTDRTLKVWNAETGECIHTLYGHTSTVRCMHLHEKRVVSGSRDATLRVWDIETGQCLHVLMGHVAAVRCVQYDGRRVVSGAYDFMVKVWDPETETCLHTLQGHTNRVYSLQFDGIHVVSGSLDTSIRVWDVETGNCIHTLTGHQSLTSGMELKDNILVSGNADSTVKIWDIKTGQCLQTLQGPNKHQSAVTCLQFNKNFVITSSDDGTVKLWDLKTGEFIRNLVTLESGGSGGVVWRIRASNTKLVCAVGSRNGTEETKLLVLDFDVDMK

Row | Binder | IC50 [1] [nM] | Kd [2] [nM] | IC50 [3] [nM] | % Inhibition Fbw7 @ 10 µM (Fbw7) [%] | % Inhibition Fbw7 @ (100 µM) (Fbw7) [%] | % Inhibition Skp2 @ 10 µM (Skp2) [%] | % Inhibition Skp2 @ (100 µM) (Skp2) [%]
1 | B1 | 76 | 53 | 76 | 6 | 8 | 0 | 16
2 | B2 | 45 | 34 | 45 | 0 | 12 | 4 | 4
3 | Ac-[dD]EG[Phe(3-F)]WE-NH2 (also called UBP017) [Ac-dEGF(3F)WE-NH2] | 102 | 250 | 102 | 3 | 0 | 10 | 27
4 | B3 | 112 | 590 | 112 | 3 | 8 | 0 | 7
5 | Propionyl-[dD]EG[Phe(3-F)]WE-NH2 (also called UBP019) [Et(CO)-dEGF(3F)WE-NH2] | 145 | 150 | 145 | 0 | 10 | 1 | 10
6 | Bz-[dD]EG[Phe(3-F)]WE-NH2 (also called UBP018) [Bz-dEGF(3F)WE-NH2] | 173 | 424 | 173 | 0 | 5 | 0 | 0
7 | B4 | – | 29500 | 3180 | 0 | 0 | 14 | 0
8 | B5 | 29 | 190 | 29 | 9 | 0 | 19 | 25
